Substitutions are numbered along the chain they refer to. Names and notes keep the numbering of the source.
T1: CsoS4A (untagged, coexpressed with His-tagged CsoS4B) (Halothiobacillus neapolitanus c2, UniProt O85043 1-83)
T1 construct: CsoS4A, Halothiobacillus neapolitanus c2; gene amplified from the cso-2 operon, the His tag stands on CsoS4B only; source: E. coli BL21 (DE3), pET-22b csoS4A-csoS4B, co-purified with His-tagged CsoS4B (Ni-NTA, Superdex 200)
T1 sequence: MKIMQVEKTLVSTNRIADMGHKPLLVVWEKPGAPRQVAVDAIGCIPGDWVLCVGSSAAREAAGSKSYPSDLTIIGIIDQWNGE

T2: C-terminal domain of CsoS2 (CsoS2-C) (Halothiobacillus neapolitanus c2, UniProt O85041 604-869)
T2 construct: CsoS2, scaffolding/linker protein of the α-carboxysome, Halothiobacillus neapolitanus c2; source: E. coli BW25113, midi-shell operon or CsoS1C-based mini-shell operon, in purified shells
T2 sequence (looked up): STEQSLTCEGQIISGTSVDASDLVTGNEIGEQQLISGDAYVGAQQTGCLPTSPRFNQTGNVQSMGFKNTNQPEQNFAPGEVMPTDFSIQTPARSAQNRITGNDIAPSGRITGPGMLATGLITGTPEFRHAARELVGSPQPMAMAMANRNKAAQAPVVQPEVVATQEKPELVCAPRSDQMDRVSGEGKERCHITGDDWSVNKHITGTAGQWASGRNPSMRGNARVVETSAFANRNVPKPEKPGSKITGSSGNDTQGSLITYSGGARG

B1: CsoS4B (C-terminal His tag; expressed alone or coexpressed with CsoS4A) (natural protein, Halothiobacillus neapolitanus c2, UniProt O85044 1-81, looked up)
chain: MEVMRVRSDLIATRRIPGLKNISLRVMEDATGKVSVACDPIGVPEGCWVFTISGSAARFGVGDFEILTDLTIGGIIDHWVT
notes: CsoS4B, Halothiobacillus neapolitanus c2; gene fragment amplified from the cso-2 operon; Five copies when expressed alone; source: E. coli BL21 (DE3), pET-22b, purified (Ni-NTA, Superdex 200)
B2: CsoS4A (in recombinant α-carboxysome shells) (natural protein, Halothiobacillus neapolitanus c2)
chain: T1 sequence
notes: CsoS4A, pentameric vertex protein of the α-carboxysome shell, Halothiobacillus neapolitanus c2; the gene as it stands in the shell operon; All pentamers of the shell models were assigned to CsoS4A; also called CsoS4 pentamer; BMC-P; source: E. coli BW25113, midi-shell operon or CsoS1C-based mini-shell operon, in purified shells
B3: CsoS4A (individually expressed, C-terminal His tag) (natural protein, Halothiobacillus neapolitanus c2)
chain: T1 sequence
notes: CsoS4A, Halothiobacillus neapolitanus c2; gene fragment amplified from the cso-2 operon; In solution pentamers and other aggregation forms; source: E. coli BL21 (DE3), pET-22b, purified (Ni-NTA, Superdex 200)
B4: His-tagged CsoS1B (expressed alone or coexpressed with CsoS1A or CsoS1C) (natural protein, Halothiobacillus neapolitanus c2, UniProt P45690 1-110, looked up)
chain: MATTHGIALGMIETRGLVPAIEAADAMTKAAEVRLVGRSFVGGGYVTVMVRGETGAVNAAVRAGADACERVGDGLVAAHIIARVHSEVEIILPETPEDSDSAWCIANLNS
notes: CsoS1B, Halothiobacillus neapolitanus c2; gene fragment amplified from the cso-2 operon; Six copies when expressed alone; about 1.5 copies per hexamer in the coexpressed CsoS1A/B sample; source: E. coli BL21 (DE3), pET-22b, purified (Ni-NTA, Superdex 200); not shown: His tag, C-terminal, kept
B5: CsoS1A (in recombinant α-carboxysome midi-shells) (natural protein, Halothiobacillus neapolitanus c2)
chain: MADVTGIALGMIETRGLVPAIEAADAMTKAAEVRLVGRQFVGGGYVTVLVRGETGAVNAAVRAGADACERVGDGLVAAHIIARVHSEVENILPKAPQA
notes: CsoS1A, hexameric shell protein of the α-carboxysome, Halothiobacillus neapolitanus c2; the gene as it stands in the midi-shell operon derived from the synthetic cso-2 operon; CsoS1A, CsoS1B and CsoS1C could not be told apart in the symmetrised maps; also called CsoS1 hexamer; BMC-H; source: E. coli BW25113, midi-shell operon (L-arabinose induced), in purified shells
B6: CsoS1C (in the CsoS1C-based T = 9 mini-shell) (natural protein, Halothiobacillus neapolitanus c2)
chain: B5 chain with D3A, Q97E
notes: CsoS1C, shell hexamer paralog, Halothiobacillus neapolitanus c2; differs from CsoS1A at the 3rd and 97th amino acids; the gene as it stands in the mini-shell operon; source: E. coli BW25113, CsoS1C-based mini-shell operon, in purified shells
B7: CsoS1C (individually expressed, C-terminal His tag) (natural protein, Halothiobacillus neapolitanus c2)
chain: B5 chain with D3A, Q97E
notes: CsoS1C, Halothiobacillus neapolitanus c2; gene fragment amplified from the cso-2 operon; source: E. coli BL21 (DE3), pET-22b, purified (Ni-NTA, Superdex 200)
B8: CsoS1A (untagged, coexpressed with His-tagged CsoS1B) (natural protein, Halothiobacillus neapolitanus c2)
chain: B5 chain
notes: CsoS1A, Halothiobacillus neapolitanus c2; gene amplified from the cso-2 operon, the His tag stands on CsoS1B only; also called S1A-S1B (coexpressed sample); source: E. coli BL21 (DE3), pET-22b csoS1A-csoS1B, co-purified with His-tagged CsoS1B (Ni-NTA, Superdex 200)
B9: His-tagged CsoS1A (individually expressed) (natural protein, Halothiobacillus neapolitanus c2)
chain: B5 chain
notes: CsoS1A, Halothiobacillus neapolitanus c2; gene fragment amplified from the cso-2 operon; source: E. coli BL21 (DE3), pET-22b, purified (Ni-NTA, Superdex 200); not shown: His tag, C-terminal, kept
B10: CsoS1C (untagged, coexpressed with His-tagged CsoS1B) (natural protein, Halothiobacillus neapolitanus c2)
chain: B5 chain with D3A, Q97E
notes: CsoS1C, Halothiobacillus neapolitanus c2; gene amplified from the cso-2 operon, the His tag stands on CsoS1B only; source: E. coli BL21 (DE3), pET-22b csoS1C-csoS1B, co-purified with His-tagged CsoS1B (Ni-NTA, Superdex 200)

Legend:
[1] = molecular target: the molecule itself; assay: SEC; Superdex 200 in 50 mM tris-HCl pH 8.0, 100 mM NaCl; individually expressed CsoS4 proteins
[2] = molecular target: T1, CsoS4A (untagged, coexpressed with …); assay: SEC + other: dynamic light scattering; Superdex 200 in 50 mM tris-HCl pH 8.0, 100 mM NaCl; DLS on DynaPro NanoStar, in triplicate; proteins expressed alone or coexpressed and purified by Ni-NTA through the His tag of one of them; settings: both partners purified
[3] = molecular target: B5; assay: cryo-EM structure; purified midi-shells assembled in E. coli from the coexpressed proteins; T = 9, T = 9 Q = 12, T = 13, T = 16 and T = 19 shells at 2.3, 2.99, 2.93, 2.75 and 3.04 Å, symmetry imposed; settings: both partners purified
[4] = molecular target: the molecule itself; assay: as above
[5] = molecular target: B6; assay: cryo-EM structure; purified CsoS1C-based T = 9 mini-shell assembled in E. coli from the coexpressed proteins; 1.8 Å; settings: both partners purified
[6] = molecular target: the molecule itself; assay: SEC + other: dynamic light scattering; Superdex 200 in 50 mM tris-HCl pH 8.0, 100 mM NaCl; DLS on DynaPro NanoStar, in triplicate; proteins expressed alone or coexpressed and purified by Ni-NTA through the His tag of one of them
[7] = molecular target: T2, C-terminal domain of CsoS2 (CsoS2-C); assay: cryo-EM structure; purified midi-shells assembled in E. coli from the coexpressed proteins; T = 9, T = 9 Q = 12, T = 13, T = 16 and T = 19 shells at 2.3, 2.99, 2.93, 2.75 and 3.04 Å, symmetry imposed; settings: both partners purified
[8] = molecular target: T2, C-terminal domain of CsoS2 (CsoS2-C); assay: cryo-EM structure; purified CsoS1C-based T = 9 mini-shell assembled in E. coli from the coexpressed proteins; 1.8 Å; settings: both partners purified
[9] = molecular target: the molecule itself; assay: as above
[10] = molecular target: the molecule itself; assay: crystal structure; crystals of the purified coexpressed CsoS1A and His-tagged CsoS1B sample, hanging drop, 18°C; 2.1 Å
[11] = molecular target: B4; assay: SDS-PAGE of washed crystals; crystals of the coexpressed CsoS1A and His-tagged CsoS1B sample, washed with buffer for various times before SDS-PAGE; settings: both partners purified
[12] = molecular target: B4; assay: SEC + other: dynamic light scattering; Superdex 200 in 50 mM tris-HCl pH 8.0, 100 mM NaCl; DLS on DynaPro NanoStar, in triplicate; proteins expressed alone or coexpressed and purified by Ni-NTA through the His tag of one of them; settings: both partners purified

Binder: B1
stoichiometry N [1]: 5
binding result [2]: binds

Binder: B2
binding result [3]: binds
stoichiometry N [4]: 5
binding result [5]: binds

Binder: B3
stoichiometry N [1]: 5

Binder: B4
stoichiometry N [6]: 6

Binder: B5
binding result [7]: binds
stoichiometry N [4]: 6

Binder: B6
binding result [8]: binds
stoichiometry N [9]: 6

Binder: B7
stoichiometry N [6]: 6

Binder: B8
stoichiometry N [10]: 6
stoichiometry N [11]: ~3 CsoS1A per CsoS1B

Binder: B9
stoichiometry N [6]: 6

Binder: B10
binding result [12]: binds

— paper PMC11606499, “Molecular principles of the assembly and construction of a carboxysome shell” (Science Advances, 2024)
